Data as given in patent CN117247456A (SANYOU BIO INC, dated 2023).

How the values were obtained:
[1] = biological target: T1, 人PD-L1 on huPD-L1-CHO-S细胞 (human, UniProt Q9NZQ7 19-290); assay: flow cytometry on huPD-L1-CHO-S cells (reference antibody)
T1 construct: whole, on cells; also called 细胞表面PD-L1

重组人PD-L1-His = 重组人PD-L1-His (human, UniProt Q9NZQ7 19-238); assay: SPR, Biacore T200, PD-L1-His as analyte (reference antibody)
重组人PD-L1-mFc = biological target: T2, 重组人PD-L1-mFc (human, UniProt Q9NZQ7 19-238); assay: ELISA, plate coated with PD-L1-mFc, anti-human IgG Fc-HRP (reference antibody)
T2 construct: also called 人重组蛋白PD-L1-mFc; PD-L1蛋白
T2 sequence (Q9NZQ7 19-238 limits assumed): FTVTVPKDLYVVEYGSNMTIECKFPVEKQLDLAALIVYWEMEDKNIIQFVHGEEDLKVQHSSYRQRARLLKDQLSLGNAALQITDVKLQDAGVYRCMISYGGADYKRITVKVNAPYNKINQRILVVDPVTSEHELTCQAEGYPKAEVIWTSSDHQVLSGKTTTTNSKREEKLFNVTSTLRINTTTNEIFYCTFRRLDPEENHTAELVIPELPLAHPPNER

Measured: binding result

T1 sequence (Q9NZQ7 19-290): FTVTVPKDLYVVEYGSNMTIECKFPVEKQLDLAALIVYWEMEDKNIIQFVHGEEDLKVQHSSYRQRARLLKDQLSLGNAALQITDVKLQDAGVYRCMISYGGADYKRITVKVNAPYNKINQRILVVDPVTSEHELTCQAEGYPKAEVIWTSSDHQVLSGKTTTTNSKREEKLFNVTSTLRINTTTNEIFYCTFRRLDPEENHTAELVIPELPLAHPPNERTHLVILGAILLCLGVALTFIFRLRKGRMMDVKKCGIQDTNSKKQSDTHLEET
重组人PD-L1-His, sequence (Q9NZQ7 19-238 limits assumed): as the sequence (Q9NZQ7 19-238 limits assumed) above

B1: 抗人PD-L1抗体D21-4 (antibody, V domains shown)
VH: EVQLVESGGGLVQPGGSLRLSCAASRTDRNINTMHWYRQAPGKGREWVGTIFIDLNTIVTDSVKGRFTISRDNAKNTLYLQMNTLRAEDTAVYYCAADVSGYGRAWGQGTTVTVSS
notes: also called 亲本抗体D21-4; 亲本PD-L1抗体D21-4; not shown: rest of the 'complete control antibody' (constant part / Fc) is not described
binds: all assays above
